# Where no end group is shown, it is not given here. [ ]: non-standard residue; d: D form. pT = C[C@@H](OP(=O)(O)O)[C@H](N)C(=O)O
# B1: 64-bp SV40 core origin (dsDNA)
# DNA 1: TAATTTTTTTTATTTATGCAGAGGCCGAGGCCGCCTCGGCCTCTGAGCTATTCCAGAAGTAGTG
# DNA 2: CACTACTTCTGGAATAGCTCAGAGGCCGAGGCGGCCTCGGCCTCTGCATAAATAAAAAAAATTA
# Legend:
# [1] = target: T1, T-ag peptide 2(9), unphosphorylated (Simian virus 40); assay: filter; background at 0.5-2 mM; EMSA at 2 mM negative; settings: protein: synthetic; tags: synthetic peptide; label: 5'-32P
# T1 chain: SQHSTPPKK
# [2] = target: T2, T-ag peptide 1(9), phospho-Thr124 (Simian virus 40); assay: as above; settings: protein: synthetic; tags: synthetic peptide, phosphorylated Thr124; label: 5'-32P
# T2 chain: SQHS[pT]PPKK
# [3] = target: SV40 large T antigen (full length) (Simian virus 40, UniProt P03070 P03070:1-708); assay: EMSA; hexamers and double hexamers; 7 mM MgCl2, AMP-PNP, 37 C, glutaraldehyde; settings: label: 5'-32P
# [4] = target: T3, T-ag peptide T-2(17), unphosphorylated (Simian virus 40, UniProt P03070); assay: filter; significant at 0.5 mM, saturated at 1-2 mM; higher affinity than 13-mer; settings: protein: synthetic; tags: synthetic peptide; label: 5'-32P
# T3 chain: ATADSQHSTPPKKKRKV
# [5] = target: T4, E1 peptide E1-P2(25), BP-E1, unphosphorylated (Bovine papillomavirus, UniProt P03116 SEQ:1-25); assay: filter; binds at 0.25 mM, better than T-2(17); EMSA works without glutaraldehyde; settings: protein: synthetic; tags: synthetic peptide; label: 5'-32P
# T4 chain: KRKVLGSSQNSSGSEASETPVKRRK
binder,measurement,setting,value
B1,binding result,[1],no binding
same,binding result,[2],no binding
same,binding result,[3],binds
same,binding result,[4],binds
same,binding result,[5],binds

# From US20040147006, “Peptides that bind to DNA and inhibit DNA replication, and methods of use” (published 2004)
